Publication PMC3925751

Molecular target: the model collagen surfaces
Experiment: SPR

adsorbed amount: 1 to 2 mg/m^2
Substance: lubricin (PRG4), purified from human synovial fluid (natural protein)
